Assay results taken from the RNAGym collection of RNA variant scans (doi:10.1073/pnas.2313332121).
Fewer inactive variants are shown than the library holds.

B1: TPR 5TU (parent)
chain: GGAUCUUCUCGAUCUAACAAAAAAGACAAAUCUGCCACAAAGCUUGAGAGCAUCUUCGGAUGCAGAGGCGGCAGCCUUCGGUGGCGCGAUAGCGCCAACGUUCUCAACUAUGACACGCAAAACGCGUGCUCCGUUGAAUGGAGUUUAUCAUG

Variants of: B1
Assay: polymerase ribozyme fitness, log enrichment relative to wild type (log ratio); higher = more active; in vitro selection for triplet polymerase activity
Method in brief: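 One round of in vitro selection, in triplicate, was applied to PCR-built, transcribed mutant libraries of each subunit of a heterodimeric triplet polymerase ribozyme. The steps were annealing with a biotinylated primer, partner subunit and triplets, incubation frozen at −7 °C, gel excision of extended constructs, streptavidin-bead capture and RT-PCR. Fitness is the logarithm, base 2, of genotype enrichment over wild-type enrichment from inverse-variance-weighted replicate averages of Illumina-sequenced inputs and outputs, keeping genotypes with ≥10 input reads and ≥1 read per output.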

Variant	polymerase ribozyme fitness (log ratio)
GGAUCUACCCGAUCUAACAGAAAAGACAAAUCUGCCACAAAGCUUGAGAGCAGCUUCGGAUGCAGAGGCGGCAGCCUUCGGUGGCGUGAUAGCGCCAUCGUUCUCAACUAUGACACGCAAAACGCGUGCUCCGUUGAAUGGAGUUUAUCAUG [U7A U9C A20G U53G C87U A98U]	-3.99
GGAUCUACUCGAUCUAACAAAAAAGAAAAAUCUGCCACAAAGCUUGAGAGCAUCUUCGUAUGCAGAGGCGGCAGCCUUCGGUAGCGCGAUAGCACCAACGUUGUCAACUAUGACACGCAAAACGCGUGCUCCGUUGAAUGGAGUUUAUCAUG [U7A C27A G59U G83A G94A C103G]	≤ -4.2
GGAUCUACUCGAUCUAACAAAAAAGACAUAUCUGCCACAAAGCUUGAGCGCAACUUCGGAUGCAGAGGCGGCAGCCUUCGGUGCCGCGAUAGCGCCAACGUCCUCAACUAUGACACGCAAAACGCGUGCUCCGUUGAAUGGAGUUUAUCAUG [U7A A29U A49C U53A G84C U102C]	≤ -4.2
GGAUCUACUCGAUCUAACAAAAAAGACAAAUCUGCUACAAAGCUUGAGAGCAUCUUCGGAUGCAGAGGCGGCAGCCUUCGGUGGCGCGAUAGCGGCAACGUUCUCAACUAUGACACGCAAAACGCGUGCUCCGUUGAAUGGAGUUUAUCAUG [U7A C36U C95G]	≤ -4.2
GGAUCUACUCGAUGUAACAAAAAAGACAGAUCUGGAACAAAGCUUGAGAGCAUCUUCGGAUGCAGAGGCGGCAACCUUCGGUGGCGCGAUUGCGCAAACGUUCUCAACUAUGACACGCAAAACGCGUGCUCCGUUGAAUGGAGUUUAUCAUG [U7A C14G A29G C35G C36A G74A A91U C96A]	≤ -4.2
GGAUCUACUCGAUCUAACAAAAAAGACAAAUCUGCCACAAAGCUUGAGAGCAUCUUCGGAUGCAGAGGCGGCAGCCUUCGGUGGCGCGAUAGCGCCAACGUUCUCAACUCUGACACGCAAAACGCGUGCUCCGUUGAUUGGAGUUUAUCAUG [U7A A110C A138U]	≤ -4.2
GGAUCUACUCGAUCUAACAAAAAAGUCAAAUGUGCCACAAAGCUUGAGCACAUCUUCGGAUGCAGAGGCGGCAGCCUUCGGUUGCGCGAUAGCGCCAACGUUCUCAACUAUGACACGCAAAACGCGUGCUCCGUUGAAUGGAGUUUAUCAUG [U7A A26U C32G A49C G50A G83U]	≤ -4.2
GGAUCUACUCGAUCUAACAAAAAAGACUAAUCUGCCACAAAGCUUGAGAGCAUCUUCGGAUGCAGACGCGGCAGCCUUCGGUGGCGUGAUAGCGCGAACGUUCUCAACUAUGACACGCAAAAAGCGUGCUCCGUUGAAUGGAGUUUAUCAUG [U7A A28U G67C C87U C96G C123A]	≤ -4.2
GGAUCUACUCGAUCUAAUAAAAAAGACAAAUCUGCCACAAAGCUUGAGAGCAUCUUCGGAUGCAGAGGCGGCAGCCUUCGGUGGCGCGAUAGCGCCAACGUUCUCAACUAUGACACGCAAAACGCGUGCUCCGUUGAAUGGAGUUUAUCAUG [U7A C18U]	-3.45
GGAUCUACUCGAUCUAACAAAAAAGAAAAAGCUGCCACAAAGCUUGAGAGCAUCUUCGGAUGCAGUGGCGGCAGCCUUCGGUGGCGCGAUAGCGCCAACGUUCUCAACUAUGACACGCAAAACGCGUGCUCCGUUGAAUGGAGUUGAUCUUG [U7A C27A U31G A66U U146G A150U]	≤ -4.2
GGAUCUACUCGAUCUAACAAAAAAGACACAUCUGCCACAAAGCUUGAGAGCAUCUUCGGUUGCAGAGGCGGCAGCGUUCGGUGGCGCGAUAGCGUCAACGUUCUCAACUAUGACACGCAAAACGCGUGCUCCAUUGAAUGAAGUUUAUCAUG [U7A A29C A60U C76G C95U G133A G141A]	≤ -4.2
GGAUCUACUCGAUCUAACAAAAAAGGCAAAUCUGCCACAAAGCUUGGGAGCAUCUUCGGAUGCAGUGGCGCCAGCCUUCGGUGGCGCGAUAGCGCCAACGUUCUCAACUAUGACACGCAAAACGCGUGCUUCGUUGAAGGGAGUUUAUCAUG [U7A A26G A47G A66U G71C C131U U139G]	≤ -4.2
GGAUCUACUCGAUCUAAAAAAAAAGACAAAUCGGCCACAAAGCUUGAGAGCAUCUUCGGAUGCAGUGGCGGCAGCCUUCGGUGACGCGAUAGCGCCAACAUUCUCAACUAUGACACGCAAAACCCGUGCUCCGUUGAAUGGAGUUUAUCAUG [U7A C18A U33G A66U G84A G100A G124C]	≤ -4.2
GGAUCUACUCGAUCUAACAAAAAAGACAAAUCUGCCACAAAGCUCGAGAUCAUCUUCGGAUGCAGAGGCGGCAGCCUUCGGUAGCGCGUUAGCCCCAACGUUCUCAACUAUGACUCGCAAAACGCGUGCUCCGUUGAAUGAAGUUUAUCAUG [U7A U45C G50U G83A A89U G94C A115U G141A]	≤ -4.2
GGAUCUACUCGAUCUAACAAAAAAGACAAAUCUGCCACAAAGCUUGAGAACAUCUUCGGAUGCAGAGGCGGCAGCCUAGGGUGGCAAGAUAGCGCCAAGGUUCUCAACUAUGACUCGCAAAACGCGUGCUCCGUUGAAUGUAGUUUAUCAUG [U7A G50A U78A C79G G86A C87A C99G A115U G141U]	≤ -4.2
GGAUCUACUCGAUCUAACAAAAAAGACAAAUCUGCCACAAAGCUUGAGAGCAUCUUCCGAUGCAGAGGCGGCAGCCUUCGGUGGCGCGAUAGCGCCAACGUUCUCAACUAUGACACGCAAAACGCGUGCUCCGUUGAAUGGAGUUUAUCAUG [U7A G58C]	-3.68
GGAUCUACUCGAUCUAACAAAAAAGACAGAUCUGCCACAAAGCUUGAGAGCAUCUUCGGAUGCAGAAGUGGCAGCCUUCCGUGGCGCGAUAGCGCCAACGUUGCUAACUAUGACACGCAAAACGCGUGCUCCGUUAAAUUGAGUUUAUCAUG [U7A A29G G67A C69U G80C C103G U104C C105U G136A G140U]	≤ -4.2
GGAUCUACUGGAUCUAACAAAAAAGACAAAUCUGCCACAAAGCUUGAGAGCAUCAUCGGAUGCAGAGGCGGUAGCCUUCGGUGGCGCGAUAGCACCAACGUUCUCAACUAUGACACGCAAAACGCGUGCUCCGUUGAAUGGAGUUUAUCAAG [U7A C10G U55A C72U G94A U151A]	≤ -4.2
GGAUCUACUGGAUCUAACAAAAAAGACAAAUAAGCCACAAAGCUUGAGACCAUCUUCGGAUGCAGAGGCGGCAGCCUUCGGUUGCGCGAUGGCGCCAACGUCCUCAACUAUGACACGCAAAACGCGUGCUCCGUUGAAUGGAGUUUAUCAUG [U7A C10G C32A U33A G50C G83U A91G U102C]	≤ -4.2
